Columns and labels:
[1] = test system: NC[C@H]1O[C@H](O[C@H]2[C@H](O)[C@@H](O[C@H]3O[C@H](CO)[C@@H](O)[C@H](N)[C@H]3O)[C@H](N)C[C@@H]2N)[C@H](O)[C@@H](O)[C@@H]1O; test: purified protein
[2] = target: the molecule itself; test: SEC; untreated protein, 100 ug, Superose 6 Increase 10/300 GL, 10 mM Tris-Cl pH 8.0, 150 mM NaCl, 1 mM EDTA, 0.5 mM beta-ME, 25°C, 0.5 ml/min; calibrated with molecular weight markers
[3] = target: the molecule itself; test: SDS-PAGE of unboiled sample; 10 ug unboiled protein on 8% SDS-PAGE, loading dye with 1% SDS, 0.125 M Tris pH 6.8, 40% glycerol; Coomassie stain
[4] = fixed acetyl-CoA (500 μM in the standard assay), 2 mM DTNB, 0.5 μM enzyme, 20 mM phosphate pH 8.0, 25°C

## MsEis (Mycolicibacterium smegmatis MC2 155)
[1]; [4]
  Km: 21 ± 0.1 µM
  Vmax: 4.8 µM/min
  kcat: 0.027 ± 0.005 s⁻¹
  kcat/Km: 1270 ± 22 M⁻¹ s⁻¹

## RvEis (Mycobacterium tuberculosis H37Rv)
[1]; pH 8.0, 25.0 °C
  Km: 11 ± 1.6 µM
  Vmax: 4 µM/min
  kcat/Km: 2140 M⁻¹ s⁻¹

B1: M. smegmatis Eis (MSMEG_3513) protein (enzyme, UniProt A0QY29 1-402, looked up)
chain: MITPRTLHTITDDDWTRIALLARFAFGDIEPEQTQAAWRSMVPEDATVVVPDETDDAFVGQSLYLDMQLTVPGGEVLPVAGISFVAVAPTHRRRGVLRAMYTELHDRIARAGYPLAVLTASEGGIYGRFGYGVATIEQHVSVDRRLAQFHPAAPDPGGVRMLVPADHRDGLADIYDRWRRRTPGGLVRPDALWDDLLADRPESRRGGGELFAFGHQDGYALYRVDRGPDGRRSAHVVELTAVTADAHAALWRALLGLDLIDRVSIGTHPHDPLPYLLTDPRQAQVTASADDLWIRIMNVPAALEARRYQADLDVVLDVADGFRSDGGRFALQISGGRARCTTTDAPADIEIDLDVLGGLYLGAHRVDGFAAANRLRSKDSELLQQFGAAFAGDMPAELGYGF
notes: also called MsEis; Enhanced Intracellular Survival protein from M. smegmatis
[2]
  stoichiometry N: 6

B2: M. tuberculosis Eis (Rv2416c, Enhanced Intracellular Survival protein) (enzyme)
chain: MTVTLCSPTEDDWPGMFLLAAASFTDFIGPESATAWRTLVPTDGAVVVRDGAGPGSEVVGMALYMDLRLTVPGEVVLPTAGLSFVAVAPTHRRRGLLRAMCAELHRRIADSGYPVAALHASEGGIYGRFGYGPATTLHELTVDRRFARFHADAPGGGLGGSSVRLVRPTEHRGEFEAIYERWRQQVPGGLLRPQVLWDELLAECKAAPGGDRESFALLHPDGYALYRVDRTDLKLARVSELRAVTADAHCALWRALIGLDSMERISIITHPQDPLPHLLTDTRLARTTWRQDGLWLRIMNVPAALEARGYAHEVGEFSTVLEVSDGGRFALKIGDGRARCTPTDAAAEIEMDRDVLGSLYLGAHRASTLAAANRLRTKDSQLLRRLDAAFASDVPVQTAFEF
notes: also called RvEis; not shown: His tag, N-terminal, kept
[2]
  stoichiometry N: 6
[3]
  stoichiometry N: 3

Reference: PMC6433294, “Differential thermal stability, conformational stability and unfolding behavior of Eis proteins from Mycobacterium smegmatis and Mycobacterium tuberculosis” (PLoS ONE, 2019)
